{"source": "paper PMC2570560", "about": "“Subunit Mobility and the Chaperone Activity of Recombinant αB-Crystallin” (The Open Biochemistry Journal, 2008)", "target": "the molecule itself", "assay": "cross-linking; 0.05 mM αB-crystallin with 0.3 mM glutaraldehyde in PBS (20 mM phosphate buffer, 150 mM NaCl, pH 7.2), 20 °C, 30 h; dialysed against PBS; examined by SDS-PAGE", "data": [{"protein": "recombinant human αB-crystallin (natural protein, UniProt P02511 1-175, looked up, also called native αB-crystallin; source: E. coli BL21(DE3), purified (ammonium sulfate fractionation, Q-Sepharose anion exchange)) MDIAIHHPWIRRPFFPFHSPSRLFDQFFGEHLLESDLFPTSTSLSPFYLRPPSFLRAPSWFDTGLSEMRLEKDRFSVNLDVKHFSPEELKVKVLGDVIEVHGKHEERQDEHGFISREFHRKYRIPADVDPLTITSSLSSDGVLTVNGPRKQVSGPERTIPITREEKPAVTAAPKK", "values": [{"measurement": "binding result", "result": "binds"}]}]}
